{"source": "IntAct's records for PubMed 22615398", "parents": {"B1": {"name": "Geminin (Homo sapiens), O75496 (parent)", "chain": "MNPSMKQKQEEIKENIKNSSVPRRTLKMIQPSASGSLVGRENELSAGLSKRKHRNDHLTSTTSSPGVIVPESSENKNLGGVTQESFDLMIKENPSSQYWKEVAEKRRKALYEALKENEKLHKEIEQKDNEIARLKKENKELAEVAEHVQYMAELIERLNGEPLDNFESLDNQEFDSEEETVEDSLVEDSEIGTCAEGTVSSSTDAKPCI"}}}
{"variants_of": "B1", "details": "with hxc9_human HOXC9, P31274"}
{"variant": "MNPSMKQKQEEIKENIKNSSVPRRTLKMIQPSASGSLVGRENELSAGLSKRKHRNDHLTSTTSSPGVIVPESSENKNLGGVTQESFDLMIKENPSSQYWKEVAEKRRKALYEALKENEKLHKEIEQKDNEIARLKKENKELAEVAEHVQYMAELIERLNGEPLDNFESLDNQEFDSQQQTVQDSLVQNSEIGTCAEGTVSSSTDAKPCI", "note": "[E177Q;E178Q;E179Q;E182Q;E187Q;D188N]", "effect of a mutation on the interaction": "decreasing interaction strength"}
{"variant": "MNPSMKQKQEEIKENIKNSSVPRRTLKMIQPSASGSLVGRENELSAGLSKRKHRNDHLTSTTSSPGVIVPESSENKNLGGVTQESFDLMIKENPSSQYWKEVAEKRRKALYEALKENEKLHKEIEQKDNEIARLKKENKELAEVAEHVQYMAELIERLNGEPLDNFESLDNQEFDSQQQTVEDSLVEDSEIGTCAEGTVSSSTDAKPCI", "note": "[E177Q;E178Q;E179Q]", "effect of a mutation on the interaction": "decreasing interaction strength"}
{"variant": "MNPSMKQKQEEIKENIKNSSVPRRTLKMIQPSASGSLVGRENELSAGLSKRKHRNDHLTSTTSSPGVIVPESSENKNLGGVTQESFDLMIKENPSSQYWKEVAEKRRKALYEALKENEKLHKEIEQKDNEIARLKKENKELAEVAEHVQYMAELIERLNGEPLDNFESLDNQEFDSEEETVEDSLAQNSEIGTCAEGTVSSSTDAKPCI", "note": "[V186A;E187Q;D188N]", "effect of a mutation on the interaction": "decreasing interaction strength"}
{"variant": "MNPSMKQKQEEIKENIKNSSVPRRTLKMIQPSASGSLVGRENELSAGLSKRKHRNDHLTSTTSSPGVIVPESSENKNLGGVTQESFDLMIKENPSSQYWKEVAEKRRKALYEALKENEKLHKEIEQKDNEIARLKKENKELAEVAEHVQYMAELIERLNGEPLDNFESLDNQEFDSEEETVEDELVEDSEIGTCAEGTVSSSTDAKPCI", "note": "[S184E]", "effect of a mutation on the interaction": "increasing interaction strength"}
{"variant": "MNPSMKQKQEEIKENIKNSSVPRRTLKMIQPSASGSLVGRENELSAGLSKRKHRNDHLTSTTSSPGVIVPESSENKNLGGVTQESFDLMIKENPSSQYWKEVAEKRRKALYEALKENEKLHKEIEQKDNEIARLKKENKELAEVAEHVQYMAELIERLNGEPLDNFESLDNQEFDSEEETAQNSLVEDSEIGTCAEGTVSSSTDAKPCI", "note": "[V181A;E182Q;D183N]", "effect of a mutation on the interaction": "decreasing interaction strength"}
